Reference: patent US20190015518A1, “DRUG DELIVERY COMPOSITIONS AND METHODS” (priority 2016, published 2019)

Columns and labels:
[1] = Pharmacokinetics in three tumor-bearing dogs (three-compartmental model); format: in vivo, dog; settings: 10 mg/m2
Experimental: An open label, multiple dose/dosage phase I/II trial of 75HA-Lys-Pt was conducted at the University of Missouri Veterinary Medical Teaching Hospital (MU-VMTH). The clinical trial protocol was approved by the University of Missouri ACUC. Dogs of any age, sex, or breed presented to the MU-VMTH oncology service with the a histological diagnosis of anal sac carcinoma, oral squamous cell carcinoma, oral melanoma, nasal carcinoma, or digital squamous cell carcinoma with a performance score of 0 or 1 (0: normal activity; 1: restricted activity; 2: compromised activity; 3: disabled; 4: dead) and without comorbid conditions that would limit life expectancy to less than nine weeks were offered enrollment in the trial.
Following complete staging, client consent was obtained to enroll each dog in the study. Once enrolled in the study, longest tumor diameters of all target lesions were recorded. An indwelling jugular catheter was placed to facilitate collection of blood samples. Dogs received 10 to 30 mg/m^2 intra-tumoral injections through 1 to 3 pre-placed 22-ga spinal needles once every three weeks for up to four planned doses. Dogs were sedated or anesthetized for each treatment, and a 2-mL blood sample was collected from the jugular catheter at 0.5, 1, 2, 4, and 24 hours following drug administration. Blood samples were spun, plasma was collected and frozen within two hours. A CBC and renal profile with urinalysis were conducted prior to and one week after each treatment. Some dogs experiencing apparent adverse effects of drug administration had complete biomedical profiles performed. Tumor measurements were collected three weeks following each administration to assess response.
Serum samples of 3 dogs were diluted 20-fold in 1% HNO3, and vortexed prior to inductively coupled plasma mass spectrometry (ICP-MS) analysis. The platinum concentration of serum was determined using an Agilent 7500i ICP-MS. A calibration curve was generated from 1 to 50 ppb platinum (acceptable criterion R^2>0.995) and 50-ppb bismuth was used as an internal standard. […] The pharmacokinetics were modeled using a SAAM II three-compartmental model.
The serum pharmacokinetics data was modeled using a three-compartmental model with an injection site compartment (q3), a serum compartment (q1), and a tissue compartment (q2). […] Three transfer constants, k(1,3), k(1,2) and k(2,1), and one loss constant, k(0,1), were assigned to the model. The k(1,3) defined the drug absorption process allowing the transfer of HA-Pt from the injection site compartment to the serum compartment. A reversible k(3,1) was not necessary as a sink condition was assumed. Due to the concentration gradient between the injection site and the central serum compartments, drug redistribution back to the injection site was not expected. […] Drug transfer and equilibrium between plasma and tissue compartments were represented by k(1,2) and k(2,1). Post-injection drug diffused from the tissue at the injection site to the blood capillaries and the lymphatic vessels. Eventually the drug molecules entered the systemic circulation and distributed into organs. It is likely that the highly perfused organs, such as liver and kidneys, established equilibrium sooner than organs with low blood flow.

[2] = Urinalysis of a healthy dog given 1.5 mg/kg on day 1 and 2.0 mg/kg on day 70, sub-mucosa; format: in vivo
Experimental: Before each dose, the dog was examined by clinical chemistry, hematology, and urinalysis. Additional examinations of clinical chemistry and hematology were performed on days 7, 14, and 42 after the first dose. Additional tests of urinalysis were performed on days 7 and 14 after the first dose. The potential drug-induced toxicities were monitored for 56 days after the second dose. Specifically, clinical chemistry and urinalysis were performed on days 7, 14, 21, and 56, and hematology was performed on days 7, 14, and 56 after the second dose to evaluate the tolerability and toxicity of the formulation.
Urianlyses were performed at pre- and post-dose for both injections. The injections were given via the sub-mucosa in the mouth.

HA-cis-[Pt(NH3)2(N^α-Acetyl-L-Lysine)] [75HA-Lys-Pt]
AUC ([1]; Dog 1 (28.7 kg)): 4000 ng·h/mL
Cmax ([1]; Dog 1 (28.7 kg)): 174 ng/mL
Tmax ([1]; Dog 1 (28.7 kg)): 60 min
Vss ([1]; Dog 1 (28.7 kg)): 2 L/kg
AUC ([1]; Dog 2 (25.2 kg)): 900 ng·h/mL
Cmax ([1]; Dog 2 (25.2 kg)): 155 ng/mL
Tmax ([1]; Dog 2 (25.2 kg)): 30 min
Vss ([1]; Dog 2 (25.2 kg)): 33.4 L/kg
AUC ([1]; Dog 3 (6.5 kg)): 2200 ng·h/mL
Cle ([1]; Dog 3 (6.5 kg)): 1.53 mL/min/kg
Cmax ([1]; Dog 3 (6.5 kg)): 128 ng/mL
Tmax ([1]; Dog 3 (6.5 kg)): 30 min
Vss ([1]; Dog 3 (6.5 kg)): 8.9 L/kg
Urobilinogen ([2]; 2 mg/kg, 7 days after): 0.2 E.U./dL
urine Bilirubin ([2]; 2 mg/kg, 7 days after): Moderate
urine Blood ([2]; 2 mg/kg, 7 days after): Negative
urine Clarity ([2]; 2 mg/kg, 7 days after): Clear
urine Color ([2]; 2 mg/kg, 7 days after): Dark Yellow
urine Glucose ([2]; 2 mg/kg, 7 days after): Negative
urine Ketones ([2]; 2 mg/kg, 7 days after): Negative
urine Leukocytes ([2]; 2 mg/kg, 7 days after): Negative
urine Nitrite ([2]; 2 mg/kg, 7 days after): Negative
urine Protein ([2]; 2 mg/kg, 7 days after): 30 mg/dL
urine Specific Gravity ([2]; 2 mg/kg, 7 days after): 1.053
urine pH ([2]; 2 mg/kg, 7 days after): 7.0
Urobilinogen ([2]; 2 mg/kg, 14 days after): 0.2 E.U./dL
urine Bilirubin ([2]; 2 mg/kg, 14 days after): Negative
urine Blood ([2]; 2 mg/kg, 14 days after): Large
urine Clarity ([2]; 2 mg/kg, 14 days after): Clear
urine Color ([2]; 2 mg/kg, 14 days after): Light Yellow
urine Glucose ([2]; 2 mg/kg, 14 days after): 100 mg/dL
urine Ketones ([2]; 2 mg/kg, 14 days after): Negative
urine Leukocytes ([2]; 2 mg/kg, 14 days after): Negative
urine Nitrite ([2]; 2 mg/kg, 14 days after): Negative
urine Protein ([2]; 2 mg/kg, 14 days after): ≥300 mg/dL
urine Specific Gravity ([2]; 2 mg/kg, 14 days after): 1.010
urine pH ([2]; 2 mg/kg, 14 days after): 7.5
Urobilinogen ([2]; 2 mg/kg, 21 days after): 1.0 E.U./dL
urine Bilirubin ([2]; 2 mg/kg, 21 days after): Moderate
urine Blood ([2]; 2 mg/kg, 21 days after): Small
urine Clarity ([2]; 2 mg/kg, 21 days after): Clear
urine Color ([2]; 2 mg/kg, 21 days after): Dark Orange
urine Glucose ([2]; 2 mg/kg, 21 days after): Negative
urine Ketones ([2]; 2 mg/kg, 21 days after): Trace
urine Leukocytes ([2]; 2 mg/kg, 21 days after): Negative
urine Nitrite ([2]; 2 mg/kg, 21 days after): Negative
urine Protein ([2]; 2 mg/kg, 21 days after): 30 mg/dL
urine Specific Gravity ([2]; 2 mg/kg, 21 days after): 1.044
urine pH ([2]; 2 mg/kg, 21 days after): 7.0
Urobilinogen ([2]; 2 mg/kg, 56 days after): 1.0 E.U./dL
urine Bilirubin ([2]; 2 mg/kg, 56 days after): Moderate
urine Blood ([2]; 2 mg/kg, 56 days after): Large
urine Clarity ([2]; 2 mg/kg, 56 days after): Clear
urine Color ([2]; 2 mg/kg, 56 days after): Dark Orange
urine Glucose ([2]; 2 mg/kg, 56 days after): Negative
urine Ketones ([2]; 2 mg/kg, 56 days after): Negative
urine Leukocytes ([2]; 2 mg/kg, 56 days after): Negative
urine Nitrite ([2]; 2 mg/kg, 56 days after): Negative
urine Protein ([2]; 2 mg/kg, 56 days after): 30 mg/dL
urine Specific Gravity ([2]; 2 mg/kg, 56 days after): 1.030
urine pH ([2]; 2 mg/kg, 56 days after): 8.0
Urobilinogen ([2]; […], 7 days after): 0.2 E.U./dL
urine Bilirubin ([2]; […], 7 days after): Negative
urine Blood ([2]; […], 7 days after): Negative
urine Clarity ([2]; […], 7 days after): Cloudy
urine Color ([2]; […], 7 days after): Yellow
urine Glucose ([2]; […], 7 days after): Negative
urine Ketones ([2]; […], 7 days after): Negative
urine Leukocytes ([2]; […], 7 days after): Negative
urine Nitrite ([2]; […], 7 days after): Negative
urine Protein ([2]; […], 7 days after): Negative
urine Specific Gravity ([2]; […], 7 days after): 1.023
urine pH ([2]; […], 7 days after): 8.0
Urobilinogen ([2]; […], 14 days): 0.2 E.U./dL
urine Blood ([2]; […], 14 days): Large
urine Clarity ([2]; […], 14 days): Cloudy
urine Color ([2]; […], 14 days): Yellow
urine Glucose ([2]; […], 14 days): Negative
urine Ketones ([2]; […], 14 days): Negative
urine Leukocytes ([2]; […], 14 days): Negative
urine Nitrite ([2]; […], 14 days): Negative
urine Protein ([2]; […], 14 days): 30 mg/dL
urine Specific Gravity ([2]; […], 14 days): 1.038
urine pH ([2]; […], 14 days): 6.5
long-term renal damage ([2]; healthy dog): did not appear to cause long-term renal damage
